This is an account of results in patent US20190077858A1 (KM BIOLOGICS, published 2019).

The target in assay [1] is T1, human IL-1β (Funakoshi Corp.) (human, UniProt P01584 117-269, biotinylated (Biotin-PEAC5-maleimide or Biotin-AC5 Sulfo-OSu)).
T1 construct: also called biotinylated human IL-1β
The assay can be described thus: ELISA on biotinylated cytokine on streptavidin plates.

The target of assay [2] is T2, rat IL-18 (Acris Antibodies GmbH) (rat, UniProt P97636 37-194, limits assumed, biotinylated (Biotin-PEAC5-maleimide or Biotin-AC5 Sulfo-OSu)).
T2 construct: also called biotinylated rat IL-18
T2 sequence (looked up): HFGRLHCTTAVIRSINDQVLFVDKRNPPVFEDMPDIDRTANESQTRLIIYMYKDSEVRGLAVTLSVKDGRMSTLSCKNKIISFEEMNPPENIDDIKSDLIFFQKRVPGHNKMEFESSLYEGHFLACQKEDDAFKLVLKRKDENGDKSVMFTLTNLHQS
The assay is described as above.

Assay [3] addresses T3, mouse IL-18 (MBL Medical & Biological Laboratories, Co., Ltd.) (mouse, UniProt P70380 36-192, biotinylated (Biotin-PEAC5-maleimide or Biotin-AC5 Sulfo-OSu)).
T3 construct: also called biotinylated mouse IL-18
T3 sequence (looked up): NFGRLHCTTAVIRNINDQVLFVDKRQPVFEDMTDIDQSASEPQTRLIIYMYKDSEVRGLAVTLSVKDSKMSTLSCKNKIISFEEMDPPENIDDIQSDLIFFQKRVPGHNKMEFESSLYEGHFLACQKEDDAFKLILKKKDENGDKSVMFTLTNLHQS
The description is as above.

For assay [4], the target named is T4, human IL-33 (MBL Medical & Biological Laboratories, Co., Ltd.) (human, UniProt O95760 112-270, limits assumed, biotinylated (Biotin-PEAC5-maleimide or Biotin-AC5 Sulfo-OSu)).
T4 construct: also called biotinylated human IL-33
T4 sequence (looked up): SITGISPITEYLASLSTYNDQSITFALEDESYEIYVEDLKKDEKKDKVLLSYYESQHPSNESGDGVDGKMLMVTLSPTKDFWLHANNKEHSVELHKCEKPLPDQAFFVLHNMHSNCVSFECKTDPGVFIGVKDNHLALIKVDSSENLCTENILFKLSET
Described as above.

In assay [5] the target is T5, K53A variant of human IL-18 (human, UniProt Q14116 37-193, K53A, biotinylated).
T5 construct: On the precursor entry the residue at 53 may not be K; the numbering is likely that of mature IL-18
T5 sequence (looked up): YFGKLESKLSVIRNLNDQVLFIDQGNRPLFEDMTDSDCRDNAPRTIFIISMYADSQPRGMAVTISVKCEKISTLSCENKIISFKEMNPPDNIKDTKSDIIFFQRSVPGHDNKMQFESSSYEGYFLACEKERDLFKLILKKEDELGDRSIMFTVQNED
The assay can be described thus: ELISA on immobilised biotinylated K53A IL-18, antibody at 1 µg/mL. On the procedure:
Next, these human IL-18 proteins were biotinylated, then each diluted to 1 μg/mL with PBS (Sigma-Aldrich Corp.), added at 100 μL/well to Streptavidin plates (Nunc), and incubated at room temperature for 2 hours to immobilize them. After the immobilization, the plates were washed with PBST, and human IL-18BPa-hFc (R&D Systems, Inc.) or the IgG molecule-type 4A6D was prepared at 1 μg/mL with 1% BSA-PBS, added at 100 μL/well to the plates, and incubated at 37° C. After 1 hour, the plates were washed with PBST, and a detection antibody anti-hFc/HRP (Cosmo Bio Co., Ltd., The binding site) was added at 100 μL/well to the plates and incubated at 37° C. After 1 hour, the plates were washed with PBST, and TMB (Sigma-Aldrich Corp.) was added at 100 μL/well to the plates to develop color. After 30 minutes, the reaction was terminated with 1 M sulfuric acid, and the color values (O.D. 450 nm/650 nm) were measured using a microplate reader (Molecular Devices, Inc.).

B1: IgG molecule-type 4A6D (antibody, V domains shown)
VH: EVQLVESGGGLVQPGGSMRLSCTASGFTFDEYAMSWVRQAPGKGLEWVSGISTGGGGTYYADSVEGRFTISRDNSKNTLYLQMNSLRAEDTAVYYCAKPWLSGSRSGDFWGQGTLVTVSS
VL: QSALTQPASVSGSPGQSITISCTGTSSDVGGYNYVSWYQQHPGKAPKLLIYEVSHRPSGVSDRFSGSKSGNTASLTISGLQAEDEADYYCSSFTSSSSLYVFGTGTKLTVL
notes: detected with anti-hFc, so human constant regions; also called human anti-human IL-18 antibody 4A6D
For the molecule B1, the binding result in assay [1] was “no binding”; in assay [2] it was “no binding”; in assay [3], “no binding”; in assay [4], “no binding”; in assay [5], “binds”.
